US20260242478A1 (published 2026)
Where no end group is shown, it is not given here.

What was measured:
[1] = biological target: T1, Anti-PSMA Fab (SEQ ID NOs: 19, 20); experiment: phage ELISA; PSMA Fab on plate pre-incubated with PSMA antigen as competitor, anti-M13 HRP detection;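 further: crude clonal phage supernatants added to Fab-coated wells still holding PSMA antigen in blocking buffer, with bound phage as read-out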
T1 construct: In the phage ELISA the Fab was biotinylated and captured on neutravidin coated plates; also called 006 PSMA Fab
Experimental: (§1) Clonal phage were harvested as crude supernatants and screened via standard ELISAs. […] Prior to the addition of clonal phage. wells were incubated with blocking buffer and PSMA antigen or blocking buffer alone. Without washing or aspirating, clonal phage supernatants were then added to the wells and incubated for a short time. Wells were then washed followed by detection of bound phage using a horse radish conjugated anti-M13 antibody.

[2] = biological target: T1, Anti-PSMA Fab (SEQ ID NOs: 19, 20); experiment: phage ELISA; biotinylated PSMA Fab on neutravidin plate, clonal phage supernatant, anti-M13 HRP detection;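 further: wells preincubated with PSMA antigen in blocking buffer or with blocking buffer only before clonal phage were added for a short incubation, then bound phage detected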
Experimental: as §1

[3] = biological target: T2, Anti-PSMA Fab (SEQ ID NOs: 19, 20); experiment: phage binding ELISA; biotinylated PSMA Fab on neutravidin plate, clonal phage supernatant, anti-M13 HRP detection;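 further: wells were preincubated with blocking buffer either containing PSMA antigen or without it before crude phage supernatant was added, briefly incubated, then washed prior to detection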
T2 construct: In the panning ELISA the Fab was biotinylated and captured on neutravidin coated plates; also called 006 PSMA Fab
Experimental: as §1

[4] = biological target: T2, Anti-PSMA Fab (SEQ ID NOs: 19, 20); experiment: phage binding ELISA; biotinylated PSMA Fab on neutravidin plate pre-incubated with PSMA antigen (competitor), anti-M13 HRP detection;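 further: competition ELISA where clonal phage supernatants were added to wells preincubated with PSMA antigen or with blocking buffer only as control, bound phage read via HRP-coupled anti-M13 antibody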
Experimental: as §1

[5] = biological target: T3, Anti-PSMA Fab (SEQ ID NOs: 19, 20); experiment: phage binding ELISA on captured anti-PSMA Fab; competitor: PSMA antigen pre-incubated in the wells
T3 construct: Biotinylated PSMA Fab captured on neutravidin coated plates in the phage ELISA; also called 006 PSMA Fab
Experimental: as §1

[6] = biological target: T3, Anti-PSMA Fab (SEQ ID NOs: 19, 20); experiment: phage binding ELISA; biotinylated anti-PSMA Fab on neutravidin plate, bound phage detected with anti-M13-HRP
Experimental: as §1

Binder	Anti-PSMA Fab (SEQ ID NOs: 19, 20) signal [3]	Anti-PSMA Fab signal in the presence of PSMA [4]	Anti-PSMA Fab signal in the presence of PSMA [5]	Anti-PSMA Fab (SEQ ID NOs: 19, 20) signal [6]	also measured
GDNWCKPEWMCIGF (cysteine pairing not given here; also: displayed on phage as pIII fusion, pIII and linker sequences not given here, Clone of the Peptide-180 library) [Phage-1860]					Phage binding ELISA, Anti-PSMA Fab signal in the presence of PSMA [1]: 0.0978; Phage binding ELISA, Anti-PSMA Fab signal [2]: 2.16
FAKWCIPEWMCSVS (tested as crude clonal phage supernatant) [Phage-1885]	2.06	0.119			
MEKLCKPAWMCSML [Phage-1868]			0.0627	2.11	
DFRWCIPEWMCTGY [Phage-1863]			0.11	2.14	
VLMLCKPAWMCMGF (tested as crude clonal phage supernatant) [Phage-1880]	2.07	0.375			
WENRCTPAWMCKGF [Phage-1867]			0.0837	2.12	
SLHWCIPAWMCDFV (tested as crude clonal phage supernatant) [Phage-1879]	2.07	0.185			
IMKWCIPEWMCYFF [Phage-1864]			0.1	2.14	
VMKWCIPEWMCQHT [Phage-1872]			0.199	2.09	
VEHWCIPAWMCEWM [Phage-1873]			0.12	2.09	
MEKWCTPSWMCVGF (cysteine pairing not given here; also: displayed on phage as pIII fusion, pIII and linker sequences not given here, Clone of the Peptide-180 library) [Phage-1855]					Phage binding ELISA, Anti-PSMA Fab signal in the presence of PSMA [1]: 0.148; Phage binding ELISA, Anti-PSMA Fab signal [2]: 2.17
LDKWCIPEWMCFDY [Phage-1862]			0.0678	2.14	
VTPWCTPSWMCFGF (tested as crude clonal phage supernatant) [Phage-1882]	2.06	0.072			
FVPWCIPAWMCAEN (cysteine pairing not given here; also: displayed on phage as pIII fusion, pIII sequence and linker not given here) [Phage-1875]			0.111	2.08	
WEHWCRPAWMCESL [Phage-1866]			0.134	2.12	
LDHWCFPMWMCTGF (tested as crude clonal phage supernatant) [Phage-1887]	2.05	0.233			
VMKWCIPSWMCSQD (cysteine pairing not given here; also: displayed on phage as pIII fusion, pIII and linker sequences not given here, Clone of the Peptide-180 library) [Phage-1857]					Phage binding ELISA, Anti-PSMA Fab signal in the presence of PSMA [1]: 0.165; Phage binding ELISA, Anti-PSMA Fab signal [2]: 2.16
LEKWCTPAWMCEML (tested as crude clonal phage supernatant) [Phage-1881]	2.06	0.0814			
WDHWCTPAWMCEFV (cysteine pairing not given here; also: displayed on phage as pIII fusion, pIII and linker sequences not given here, Clone of the Peptide-180 library) [Phage-1852]					Phage binding ELISA, Anti-PSMA Fab signal in the presence of PSMA [1]: 0.0692; Phage binding ELISA, Anti-PSMA Fab signal [2]: 2.17

Binder	Anti-PSMA Fab (SEQ ID NOs: 19, 20) signal [3]	Anti-PSMA Fab signal in the presence of PSMA [4]	Anti-PSMA Fab signal in the presence of PSMA [5]	Anti-PSMA Fab (SEQ ID NOs: 19, 20) signal [6]	also measured
VDKWCTPIWMCEGF (cysteine pairing not given here; also: displayed on phage as pIII fusion, pIII and linker sequences not given here, Clone of the Peptide-180 library) [Phage-1858]					Phage binding ELISA, Anti-PSMA Fab signal in the presence of PSMA [1]: 0.0951; Phage binding ELISA, Anti-PSMA Fab signal [2]: 2.16
WSNWCTPEWMCVGF (tested as crude clonal phage supernatant) [Phage-1888]	2.05	0.0814			
WEKWCIPAWMCVAD (tested as crude clonal phage supernatant) [Phage-1886]	2.05	0.134			
VEILCKPKWMCEFW (tested as crude clonal phage supernatant) [Phage-1878]	2.07	0.109			
AVKLCIPEWMCVGQ [Phage-1861]			0.0676	2.15	
MVMRCQPEWMCTGI (tested as crude clonal phage supernatant) [Phage-1884]	2.06	0.122			
VNKLCTPEWMCVGM (tested as crude clonal phage supernatant) [Phage-1883]	2.06	0.0609			
IERWCIPDWMCHVW (tested as crude clonal phage supernatant) [Phage-1877]	2.08	0.126			
SIKMCIPQWMCVMQ [Phage-1869]			0.179	2.11	
MGNWCIPTWMCTGF (cysteine pairing not given here; also: displayed on phage as pIII fusion, pIII and linker sequences not given here, Clone of the Peptide-180 library) [Phage-1856]					Phage binding ELISA, Anti-PSMA Fab signal in the presence of PSMA [1]: 0.162; Phage binding ELISA, Anti-PSMA Fab signal [2]: 2.16
EFIWCRPAWMCMDV [Phage-1870]			0.0681	2.11	
WEKWCTPQWMCELI (cysteine pairing not given here; also: displayed on phage as pIII fusion, pIII and linker sequences not given here, Clone of the Peptide-180 library) [Phage-1854]					Phage binding ELISA, Anti-PSMA Fab signal in the presence of PSMA [1]: 0.182; Phage binding ELISA, Anti-PSMA Fab signal [2]: 2.17
VVKLCIPEWMCAEW (cysteine pairing not given here; also: displayed on phage as pIII fusion, pIII sequence and linker not given here, tested as crude clonal phage supernatant) [Phage-1876]	2.08	0.115			
SPKWCTPEWMCSHL [Phage-1874]			0.127	2.09	
VEKWCVPTWMCDWV (cysteine pairing not given here; also: displayed on phage as pIII fusion, pIII and linker sequences not given here, Clone of the Peptide-180 library) [Phage-1859]					Phage binding ELISA, Anti-PSMA Fab signal in the presence of PSMA [1]: 0.0833; Phage binding ELISA, Anti-PSMA Fab signal [2]: 2.16
HVKWCIPAWMCEAS [Phage-1871]			0.0972	2.1	
MEKWCIPEWMCLHT (cysteine pairing not given here; also: displayed on phage as pIII fusion, pIII and linker sequences not given here, Clone of the Peptide-180 library) [Phage-1853]					Phage binding ELISA, Anti-PSMA Fab signal in the presence of PSMA [1]: 0.0816; Phage binding ELISA, Anti-PSMA Fab signal [2]: 2.17
EITRCIPAWMCDFW [Phage-1865]			0.081	2.13	
